Laboratory results reported in patent publication US9175090B2, “Methods of using an antibody to inhibit WNT-mediated signaling in cancer” (Vanderbilt University, priority 2011, dated 2015).

Tests used:
[1] = system: Wnt signaling (TOPflash, TCF/Lef1 promoter luciferase); test: TOPflash reporter assay in HEK 293 STF cells treated with Wnt3a-conditioned media; format: cell-based; settings: 24 hours, read-out: IC50, inhibition of TOPflash activation (Wnt signaling)
Source text: Graph represents mean±s.e.m of TOPflash signal normalized to cell number (performed in quadruplicate). […] Data shown represent mean of four independent amplification reactions, graphed as relative expression to unstimulated cells. Expression levels were normalized to β-actin mRNA. Error bars, RQ values with 95% confidence.

AXIN2 and c-MYC = test: Real-time RT-PCR of endogenous Wnt target genes; format: cell-based; settings: normalized to β-actin mRNA
[2] = target: β-catenin degradation complex (Homo sapiens, UniProt P48729); test: In vitro kinase reaction with purified GSK3, CK1α, Axin and β-catenin; format: biochemical; settings: pyrvinium 10 nM, proteins 100 nM each
Chain of β-catenin degradation complex (P48729 whole entry, one chain of several): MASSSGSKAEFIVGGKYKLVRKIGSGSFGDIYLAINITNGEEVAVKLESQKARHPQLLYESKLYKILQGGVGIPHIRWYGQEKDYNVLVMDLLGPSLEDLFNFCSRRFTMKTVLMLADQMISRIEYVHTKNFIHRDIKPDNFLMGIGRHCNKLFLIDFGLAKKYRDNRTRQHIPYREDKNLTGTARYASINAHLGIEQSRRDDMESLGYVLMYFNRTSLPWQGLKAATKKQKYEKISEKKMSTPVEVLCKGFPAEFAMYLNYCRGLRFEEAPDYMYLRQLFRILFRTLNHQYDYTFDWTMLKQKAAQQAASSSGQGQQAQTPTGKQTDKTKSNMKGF
Description: (§1) FIGS. 3A-C. […] Phosphorylation of β-catenin on GSK3 sites (p33,37,41) and the priming CK1α site (p45) was detected by immunoblotting. […] Cells were treated with Wnt3a-conditioned media and lysates were assayed for TOPflash to assess Wnt signaling.
(§2) The inventors used a cell line with reduced CK1α levels due to inducible expression of shRNA against CK1α.

CK1α = CK1α (Homo sapiens, UniProt P48729); test: Binding and activation of purified recombinant kinases; format: biochemical
Chain of CK1α (P48729 whole entry): as the sequence (P48729 whole entry, one chain of several) above

GSK3 = GSK3 (Homo sapiens, UniProt P49841); test: GSK3 kinase activity; format: biochemical; settings: data not shown
Chain of GSK3 (P49841 whole entry): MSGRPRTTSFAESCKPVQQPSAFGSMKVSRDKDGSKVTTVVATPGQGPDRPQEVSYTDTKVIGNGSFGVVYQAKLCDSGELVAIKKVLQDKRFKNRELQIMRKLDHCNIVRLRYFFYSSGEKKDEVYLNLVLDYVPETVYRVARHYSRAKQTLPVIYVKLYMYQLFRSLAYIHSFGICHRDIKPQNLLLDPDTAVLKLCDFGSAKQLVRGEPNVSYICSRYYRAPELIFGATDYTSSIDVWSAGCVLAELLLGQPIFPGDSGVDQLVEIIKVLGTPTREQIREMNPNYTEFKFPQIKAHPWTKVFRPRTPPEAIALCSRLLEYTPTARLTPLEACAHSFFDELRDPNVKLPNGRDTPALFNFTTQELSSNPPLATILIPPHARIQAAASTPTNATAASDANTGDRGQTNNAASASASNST
Source text: as §2

[3] = system: Wnt signaling (TOPflash) in shRNA-CK1α cells; test: TOPflash in Jurkat cell line with inducible shRNA for CK1α; format: cell-based; settings: pyrvinium 30 nM, Wnt3a-conditioned media
Description: as §1, §2

[4] = system: male C57Bl/6 mice with myocardial infarct; format: in vivo
Source text: FIGS. 5A-D. Mouse MI model. Representative mouse EKG tracings pre (FIG. 5A) and post (FIG. 5B) coronary artery ligation. […] Arrows mark lateral and posterior left ventricle (LV). LVIDD, LVIDS=LV internal diameter at systole and […], respectively. RV=right ventricle. […] Cardiac dimensions were obtained from 2-D guided M-mode images (100 frames/sec) and were read blinded using short axis and a parasternal long-axis views with the leading edge method. All echo measurements were averaged over 3 consecutive beats on unsedated mice at 7 and 30 days after infarction. Statistical significance assessed by the Wilcoxon rank sum test.
Myocardial infarcts were induced in male C57Bl/6 mice by coronary ligation (FIG. 5) as previously described (Alfaro et al., 2008).
Ventricular remodeling and cardiac functional parameters will be assessed by echo.
Mammalian cardiomyocytes irreversibly withdraw from the cell cycle soon after birth and undergo terminal differentiation. […] Therefore, cardiac injury causes permanent myocardial loss and cardiac dysfunction. […] Proliferation was assessed by immunostaining for Ki-67. […] Phosphorylation of histone 3 (pH3) on Ser 10 is an established cellular marker for chromosome condensation during mitotic prophase (van Amerongen and Engel, 2008).

[5] = system: Wnt3a-mediated Wnt signaling (LRP5/6); test: Wnt3a-mediated activation of the Wnt pathway, TOPflash reporter cell line (antibody); format: cell-based
Description: FIGS. 11A-B. Wnt activated signaling. (FIG. 11A) Wnt3a activated signaling in 293 HEK cells. (FIG. 11B) Wnt signaling in SW480 colorectal cancer cell line with mutant APC.
The inventors examined effects of antibodies on Wnt signaling activated by recombinant Wnt3a, which was added to the media, and effects of antibodies on Wnt signaling in a colorectal cancer line (SW480) that has constitutively active Wnt signaling due to a mutation in the tumor suppressor, APC. […] This was unexpected because the APC mutation is downstream of the LRP6 receptor, to which the antibody is directed.

[6] = system: Wnt3a-mediated luciferase activity; test: Plasma of IV-treated mice tested on TOPflash reporter HEK cells; format: in vivo; settings: for Greater inhibition of Wnt3a-mediated luciferase activity by plasma compared to IgM controls: 9.4 μg, 100 μl plasma
Description: (§3) The canonical Wnt signaling pathway was assessed using luciferase activity in HEK cells stably transfected with TOPflash reporter. Cells were treated with recombinant Wnt 3a to activate Wnt signaling. […] Cycle thresholds for 18S mRNA transcripts were used to normalize between samples. n=4 mice analyzed at each time point for each cohort. Ki-67-positive cells in the heart (FIG. 8C) and pH3-positive mononucleated, differentiated cardiomyocytes in mabLRP5/6-treated remote myocardium (FIG. 8D).
(§4) To evaluate whether mabLRP5/6 inhibits Wnt-mediated transcription in vivo, the inventors injected 3 groups of mice IV with increasing amounts of mabLRP5/6 (2.3 μg, 4.7 μg or 9.4 μg, n=3 in each group) or control IgM. Mice were sacrificed after 48 hours and serum and tissue samples were obtained. […] Heart tissues from treated animals were homogenized and total RNA isolated for real time RT-PCR analysis (Young et al., 2005). […] The effect on Axin 2 transcript persisted at 72 hours after a single administration. To obtain evidence that mabLRP5/6 has cellular effects on post-MI myocardium, the inventors analyzed by immuno-histology paraffin-embedded sections from male mice treated with either IgM or mabLRP5/6 12 hours prior to induction of acute MI and then sacrificed 14 days later (n=1 for each condition). They identified >3-fold higher Ki-67^+ and pH3^+ cells in the remote LV from the mabLRP5/6-treated mouse compared to the control IgM-treated mouse (FIGS. 8C-D).

[7] = system: Axin 2 and Cyclin D transcripts; test: Real time RT-PCR of Wnt target genes in heart homogenates of treated mice; format: in vivo
Description: as §3, §4

[8] = system: Ki-67+ and pH3+ cells in remote LV; test: Immunohistology of post-MI myocardium after antibody pretreatment; format: in vivo, mice; settings: treated 12 hours prior to MI, 14 days, n=1
Description: as §3
as §4, with “They identified >3-fold higher Ki-67^+ and pH3^+ cells in the remote LV from the mabLRP5/6-treated mouse compared to the control IgM-treated mouse (FIGS. 8C-D).” left out

[9] = system: male C57Bl/6 mice with myocardial infarct; test: Acute myocardial infarct model, IV antibody, echocardiography; format: in vivo
Description: FIG. 9. Effect of low and high dose of mabLRP5/6 adminstered post infarct as compared to […] control. LVIDD and LVIDS to represent cardiac remodeling, and EF, ejection fraction, as a measurement of cardiac function, were determined by echocardiography and are plotted as percentage difference values (mean±SD) between 7 and 30 days after infarct.
The inventors initiated studies to determine the effectiveness of mMABLRP5/6 on repair and regeneration of injured myocardium using an mouse acute myocardial infarct model. Myocardial infarcts were induced in 8-week old male C57Bl/6 mice ([…]) by coronary ligation (FIG. 9) as previously described (Alfaro et al., 2008). At the time of infarction, the inventors administered 10 μg or 20 μg of mabLRP5/6 in 100 μl PBS or the same amount of IgM as control, intravenously by tail vein injection. The mice received a second dose of mabLRP5/6 or control antibody 72 hours after infarct to maintain at least 50% Wnt inhibition activity in the plasma through 7 days post infarct (data not shown). Ventricular remodeling and cardiac function were analyzed by echocardiography pre-infarct and at 7 and 30 days post MI. Ventricular function was reflected by ejection fraction (EF). LV internal dimension diastolic (LVIDD) and LV internal dimension systolic (LVIDS) reflected remodeling of the infarcted ventricle (FIG. 1). […] Additional numbers of animals as well as histologic myocardial analysis and high-resolution visual sonics studies are pending to determine infarct size and elucidate effects of mabLRP5/6 on endogenous cellular myocardial repair.

mice = test: In vivo toxicity of mabLRP5/6; settings: mouse
[10] = system: β-catenin nuclear accumulation, RKO cells; test: Wnt3a-induced nuclear accumulation of β-catenin in RKO cells; settings: 300 pg/ml, 24 hours
Description: RKO cells were treated with Wnt3a in the presence or absence of 300 pg/ml mabLRP6 for 24 hours. Cells were fixed and immunostained for β-catenin (green). DAPI (blue) stains DNA.

`Cc1cc(/C=C/c2ccc3cc(N(C)C)ccc3[n+]2C)c(C)n1-c1ccccc1` [pyrvinium] was tested. Which IC50 [1] did it give?
The IC50 was roughly 10 nM.

What about the “Levels of endogenous Wnt target genes AXIN2 and c-MYC” value (AXIN2 and c-MYC) of the same molecule?
Its value is “decreases”.

And the “β-catenin phosphorylation (GSK3 and CK1α sites)” value [2]?
Its value is “dramatic increase”.

And the “Phosphorylation of Tau by CK1α” value (CK1α; data not shown)?
The value was “enhanced”.

What about the “Binding and activation of representative kinases” value (CK1α; pyrvinium 10 nM) of the same molecule?
The value was “binding and activation of CK1α alone”.

And the GSK3 activity (GSK3)?
The GSK3 activity was “no observable effect”.

And the “Inhibition of TOPflash activity in shRNA-CK1α cells” value [3]?
Its value is “failed to inhibit”.

And the “Infarct size, comparison between the two cohorts” value ([4]; data not shown)?
The value was “did not reflect any statistically significant differences”.

What about the “Numbers of Ki-67-positive cells in peri-infarct and remote myocardium, versus Cmpd 211” value ([4]; mouse, in vivo) of the same molecule?
Its value is “significantly higher”.

And the “Numbers of Ki-67-positive cells in the scar, versus Cmpd 211” value ([4]; mouse, in vivo)?
Its value is “similar”.

What about the “Average difference in fractional shortening between days 7 and 30” value ([4]; single 200 nM injection, p<0.05) of the same molecule?
The value was 22.3+5.2.

What about the “Myocyte proliferation in sham-operated animals” value ([4]; single intramyocardial injection into LV apex, data not shown) of the same molecule?
Its value is “did not induce myocyte proliferation”.

B1: mabLRP5/6: stable hybridoma line monoclonal antibody against LRP5/6 raised in BALB/c mice with human LRP6 fragments; inhibits Wnt signaling (antibody, V domains shown)
VH: QVQLKESGPGLVASSQSLSITCTVSGFSLSRYSVHWVRQPPGKGLEWLGMIWGGGSTDYNSALKSRLGISKDNSKSQVFLKMNSLQTDDTAMYYCAGTGSWFAYWGQGTLVTVSA
VL: DIQMTQSPASLSASVGETVTITCRASGNIHNYLAWYQQKQGKSPQLLVYNAKTLADGVPSRFSGSGSGTQYSLKINSLQPEDFGSYYCQHFWSTPWTFGGGTKLEIK
How did the “IC50, inhibition of Wnt signaling” value [5] turn out when B1 was run?
Its value is roughly 0.2 ng/mL.

And the “Greater inhibition of Wnt3a-mediated luciferase activity by plasma compared to IgM controls” value ([6]; 48 hours after administration)?
Its value is roughly 5 fold.

And the “Greater inhibition of Wnt3a-mediated luciferase activity by plasma compared to IgM controls” value ([6]; 72 hours after administration)?
The value was roughly 2 fold.

And the “Wnt signaling in TOPflash reporter cell line treated with plasma” value ([6]; IV 4.7 and 9.4 μg, 50 μl plasma, 48 and 72 hours)?
Its value is “inhibited Wnt signaling”.

What about the “Reduction in Axin 2 transcripts in heart compared to controls” value ([7]; 48 h) of the same molecule?
The value was roughly 2 fold.

What about the “Reduction in Cyclin D transcripts in heart compared to controls” value ([7]; 48 h) of the same molecule?
Its value is roughly 2 fold.

And the “Effect on Axin 2 transcript in heart” value ([7]; 72 hours after a single administration)?
Its value is “persisted”.

And the “Ki-67+ cells in remote LV, higher than control IgM” value [8]?
Its value is greater than 3 fold.

And the “pH3+ cells in remote LV, higher than control IgM” value [8]?
The value was greater than 3 fold.

And the “Percentage difference in LVIDS between day 7 and day 30” value ([9]; 20 μg compared with 10 μg dose or control IgM)?
Its value is “reduced in a dose-dependent manner”.

What about the “Decrease in ejection fraction (EF) between day 7 and day 30” value ([9]; high dose) of the same molecule?
Its value is “decreased less”.

And the “Percentage difference in LVIDD between day 7 and day 30” value ([9]; high dose (20 μg IV at infarction and 72 hours))?
The value was 5.36±0.83 percentage.

And the “Decrease in ejection fraction (EF) between day 7 and day 30” value ([9]; low dose)?
Its value is roughly 6%.

What about the “Percentage difference in LVIDD between day 7 and day 30” value ([9]; low dose (10 μg IV at infarction and 72 hours)) of the same molecule?
The value was 6.23 ± 2.3 percentage.

And the “Wnt inhibition activity in the plasma” value ([9]; second dose at 72 hours, through 7 days post infarct, data not shown)?
Its value is “at least 50%”.

What about the In vivo toxicity (mice) of the same molecule?
The In vivo toxicity was “minimal toxicity”.

What about the “Wnt3a-induced nuclear accumulation of β-catenin” value [10] of the same molecule?
Its value is “blocked”.

And the “Wnt3a-induced nuclear accumulation of β-catenin” value ([10]; listed as mabLRP6)?
Its value is “inhibits”.
